Where no end group is shown, it is not given here.
B1: AIMP1-(193-312): recombinant deletion mutant of AIMP1, expressed as GST-tag fusion protein (protein, UniProt Q12904 193-312, looked up, fragment)
chain: LVNHVPLEQMQNRMVILLCNLKPAKMRGVLSQAMVMCASSPEKIEILAPPNGSVPGDRITFDAFPGEPDKELNPKKKIWEQIQPDLHTNDECVATYKGVPFEVKGKGVCRAQTMSNSGIK
modifications: GST tag
notes: recombinant deletion mutant of AIMP1, expressed as GST-tag fusion protein
B2: AIMP1-(47-192): recombinant deletion mutant of AIMP1, expressed as GST-tag fusion protein (protein, UniProt Q12904 47-192, looked up, fragment)
chain: KLRVENAKLKKEIEELKQELIQAEIQNGVKQIPFPSGTPLHANSMVSENVIQSTAVTTVSSGTKEQIKGGTGDEKKAKEKIEKKGEKKEKKQQSIAGSADSKPIDVSRLDLRIGCIITARKHPDADSLYVEEVDVGEIAPRTVVSG
modifications: GST tag
notes: as for B1
B3: AIMP1-(114-192): recombinant deletion mutant of AIMP1, expressed as GST-tag fusion protein (protein, UniProt Q12904 114-192, looked up, fragment)
chain: KGGTGDEKKAKEKIEKKGEKKEKKQQSIAGSADSKPIDVSRLDLRIGCIITARKHPDADSLYVEEVDVGEIAPRTVVSG
modifications: GST tag
notes: as for B1
B4: AIMP1-(54-192): recombinant deletion mutant of AIMP1, expressed as GST-tag fusion protein (protein, UniProt Q12904 54-192, looked up, fragment)
chain: KLKKEIEELKQELIQAEIQNGVKQIPFPSGTPLHANSMVSENVIQSTAVTTVSSGTKEQIKGGTGDEKKAKEKIEKKGEKKEKKQQSIAGSADSKPIDVSRLDLRIGCIITARKHPDADSLYVEEVDVGEIAPRTVVSG
modifications: GST tag
notes: as for B1
B5: AIMP1-(1-192): recombinant deletion mutant of AIMP1, expressed as GST-tag fusion protein (protein, listed as Homo sapiens)
chain: MANNDAVLKRLEQKGAEADQIIEYLKQQVSLLKEKAILQATLREEKKLRVENAKLKKEIEELKQELIQAEIQNGVKQIAFPSGTPLHANSMVSENVIQSTAVTTVSSGTKEQIKGGTGDEKKAKEKIEKKGEKKEKKQQSIAGSADSKPIDVSRLDLRIGCIITARKHPDADSLYVEEVDVGEIAPRTVVSG
modifications: GST tag fusion; PEPTIDE (1)..(192) AIMP1-(1-192)
notes: as for B1
B6: AIMP1-(101-192): recombinant deletion mutant of AIMP1, expressed as GST-tag fusion protein (protein, UniProt Q12904 101-192, looked up, fragment)
chain: AVTTVSSGTKEQIKGGTGDEKKAKEKIEKKGEKKEKKQQSIAGSADSKPIDVSRLDLRIGCIITARKHPDADSLYVEEVDVGEIAPRTVVSG
modifications: GST tag
notes: as for B1
B7: AIMP1-(6-192): recombinant deletion mutant of AIMP1, expressed as GST-tag fusion protein (protein, listed as Homo sapiens)
chain: AVLKRLEQKGAEADQIIEYLKQQVSLLKEKAILQATLREEKKLRVENAKLKKEIEELKQELIQAEIQNGVKQIAFPSGTPLHANSMVSENVIQSTAVTTVSSGTKEQIKGGTGDEKKAKEKIEKKGEKKEKKQQSIAGSADSKPIDVSRLDLRIGCIITARKHPDADSLYVEEVDVGEIAPRTVVSG
modifications: GST tag fusion; PEPTIDE (1)..(187) AIMP1-(6-192)
notes: as for B1
B8: AIMP1-(1-312): full-length ARS-interacting multi-functional protein 1 consisting of 312 amino acids (protein, listed as Homo sapiens)
chain: MANNDAVLKRLEQKGAEADQIIEYLKQQVSLLKEKAILQATLREEKKLRVENAKLKKEIEELKQELIQAEIQNGVKQIAFPSGTPLHANSMVSENVIQSTAVTTVSSGTKEQIKGGTGDEKKAKEKIEKKGEKKEKKQQSIAGSADSKPIDVSRLDLRIGCIITARKHPDADSLYVEEVDVGEIAPRTVVSGLVNHVPLEQMQNRMVILLCNLKPAKMRGVLSQAMVMCASSPEKIEILAPPNGSVPGDRITFDAFPGEPDKELNPKKKIWEQIQPDLHTNDECVATYKGVPFEVKGKGVCRAQTMSNSGIK
B9: AIMP1-(30-192): recombinant deletion mutant of AIMP1, expressed as GST-tag fusion protein (protein, UniProt Q12904 30-192, looked up, fragment)
chain: SLLKEKAILQATLREEKKLRVENAKLKKEIEELKQELIQAEIQNGVKQIPFPSGTPLHANSMVSENVIQSTAVTTVSSGTKEQIKGGTGDEKKAKEKIEKKGEKKEKKQQSIAGSADSKPIDVSRLDLRIGCIITARKHPDADSLYVEEVDVGEIAPRTVVSG
modifications: GST tag
notes: as for B1

Columns and labels:
C57BL/6 mice = test: In vivo wound healing (wound closure) of excised back skin wound; settings: 200 nM in PBS containing 20% glycerol, applied to wound twice a day until day 8, 0.5 cm-diameter back wound
Experimental: AIMP1-(14-34) (SEQ ID NO: 6) and AIMP1-(26-46) (SEQ ID NO: 7) fragments smaller than the AIMP1-(6-46) fragment synthesized in Example 3 were synthesized by a chemical synthetic method in Peptron (http://www.peptron.co.kr), and the wound healing-promoting activities thereof were analyzed in vivo. The analysis of the wound healing activities was performed using 8-week-old C57BL/6 mice. The mice were anesthetized with an intraperitoneal injection of 2.5% avertin (100 μl/10 g), and then the back of each animal was shaved, followed by disinfecting the back skin with 70% alcohol. The back skin was marked with a 0.5 cm-diameter circle, and a skin and panniculus carnosus muscle was removed with scissors to induce a wound. The wounds were left uncovered without a dressing. One wound was generated per mouse and treated with 200 nM of each of AIMP1-(14-34), AIMP1-(26-46) and AIMP1-(6-46) fragments in PBS (phosphate-buffered saline) containing 20% glycerol, twice a day at 12-hour intervals until day 8 after wounding. A control group was treated only with PBS containing 20% glycerol. Then, wound closure was monitored daily using the Image-pro Plus software and was calculated as the percentage of the initial wound area.

[1] = test system: Human foreskin fibroblast cells; test: Fibroblast proliferation, tritium-labeled thymidine incorporation; type: cell-based; settings: for activity of inducing the proliferation of fibroblast cells: 100 nM, 12 hours, incorporated thymidine
Experimental: (§1) Human foreskin fibroblast cells (MC1232 obtained from MIT), U2OS cells (ATCC HTB-96) and bovine aorta endothelial cells (hereinafter, referred to as “BAECs”) were treated with the AIMP1 fragments cleaved by elastase 2 in Test Example <1-1>, and the effects of the AIMP1 fragments on the proliferation of the cells were examined.
(§2) Bovine aorta endothelial cells (BAECs) were isolated from bovine descending thoracic aorta and cultured in Dulbecco's modified Eagle's medium (DMEM) containing 20% FBS at 37° C. in a 5% CO2 atmosphere. The foreskin fibroblast cells and the U2OS cells were cultured in DMEM with 10% FBS and 1% antibiotic. Each of the cultured cell lines (5×10^3 cells) was cultivated in a 24-well dish for 12 hours and then subjected to serum-starved culture for 3 hours. Next, 100 nM of a full-length AIMP1 or fragments of AIMP1 cleaved with an enzyme were added to each well and cultivated for 12 hours. The control group was without the testing agents. After completion of the cultivation, tritium-labeled thymidine (1 μCi/well) was added to each well, and the cells were additionally cultured at 37° C. for 4 hours. The cultured cells were washed with PBS three times and fixed with 5% TCA for 10 minutes, followed by washing again with PBS three times. The cells were lysed with 0.5N NaOH, and the incorporated thymidine was quantified with a liquid scintillation counter.
In order to examine the fibroblast proliferation activities of the recombinant proteins constructed in Example 1, foreskin fibroblast cells were treated with each of the recombinant proteins in the same manner as in Test Example <1-2>, and the proliferation of the fibroblast cells was examined.
Whether the AIMP1-(6-46) fragment synthesized in Example <3-1> stimulates the proliferation of fibroblast cells was examined in the same manner as in Test Example <1-2>. Herein, the AIMP1-(6-46) fragment was used at various concentrations ([…]), and 100 nM of the full-length AIMP1 (AIMP1-(1-132)) was used as a control.

[2] = test system: bovine aorta endothelial cells; test: Endothelial cell proliferation, tritium-labeled thymidine incorporation; type: cell-based; settings: 100 nM, 12 hours, BAECs, incorporated thymidine
Experimental: as §1, §2

Molecule | activity of inducing the proliferation of fibroblast cells ([1]; foreskin fibroblast cells) | further results
AIMP1-(26-46): 21-amino-acid fragment of AIMP1-(6-46), chemically synthesized (KQQVSLLKEKAILQATLREEK; PEPTIDE (1)..(21) AIMP1-(26-46); listed as Homo sapiens) |  | activity of promoting wound healing (wound closure as percentage of the initial wound area) (C57BL/6 mice): had the activities of promoting wound healing
AIMP1-(14-34): 21-amino-acid fragment of AIMP1-(6-46), chemically synthesized (KGAEADQIIEYLKQQVSLLKE; PEPTIDE (1)..(21) AIMP1-(14-34); listed as Homo sapiens) |  | activity of promoting wound healing (wound closure as percentage of the initial wound area) (C57BL/6 mice): had the activities of promoting wound healing
NH2-AVLKRLEQKGAEADQIIEYLKQQVSLLKEKAILQATLREEK-COOH (H-AVLKRLEQKGAEADQIIEYLKQQVSLLKEKAILQATLREEK-OH; listed as Homo sapiens) [AIMP1-(6-46), peptide corresponding to amino acids 6-46 of AIMP1, expressed in E. coli] |  | proliferation of fibroblast cells, dose dependence ([1]; concentrations 0, 50, 100 and 200 mM (so in the source), foreskin fibroblast cells): induced the proliferation of fibroblast cells in a dose-dependent manner; fibroblast proliferation activity compared with full-length AIMP1 at the same concentration ([1]; control 100 nM full-length AIMP1): almost similar to the full-length AIMP1; activity of promoting wound healing (wound closure as percentage of the initial wound area) (C57BL/6 mice): had the activities of promoting wound healing
AIMP1-(1-46): recombinant deletion mutant of AIMP1, expressed as GST-tag fusion protein (MANNDAVLKRLEQKGAEADQIIEYLKQQVSLLKEKAILQATLREEK; also: GST tag fusion, end not given here; listed as Homo sapiens) | high proliferation-inducing activity | 
AIMP1-(1-53): recombinant deletion mutant of AIMP1, expressed as GST-tag fusion protein (MANNDAVLKRLEQKGAEADQIIEYLKQQVSLLKEKAILQATLREEKKLRVENA; also: GST tag fusion, end not given here; listed as Homo sapiens) | high proliferation-inducing activity | 
B1 | did not | 
B2 | did not | 
B3 | did not | 
B4 | did not | 
B5 | high proliferation-inducing activity | 
B6 | did not | 
B7 | high proliferation-inducing activity | 
B8 | high proliferation-inducing activity | activity of inhibiting the proliferation of endothelial cells [2]: inhibiting the proliferation of endothelial cells
B9 | did not | 

— patent US20090305973A1, “NOVEL PEPTIDE AND USE THEREOF” (priority 2006, published 2009)
